Experimental data taken from article PMC2615606.

B1: DUT Sp1 (-64 to -91) (dsDNA)
DNA 1: GGGCGGTGGGTGGGGCGGGGCTGGCGGG
DNA 2: CCCGCCAGCCCCGCCCCACCCACCGCCC
B2: DUT Sp1Δ (dsDNA)
DNA 1: GTTCGGTGGGTGGTTCGGGGCTGGCTTG
DNA 2: CAAGCCAGCCCCGAACCACCCACCGAAC

Legend:
Sp1 (rhSp1) [1] = biological target: T1, Sp1 (rhSp1) (UniProt P08047 1-785); test: EMSA
Sp1 (rhSp1) [2] = biological target: T1, Sp1 (rhSp1); test: competition

T1 sequence (P08047 whole entry): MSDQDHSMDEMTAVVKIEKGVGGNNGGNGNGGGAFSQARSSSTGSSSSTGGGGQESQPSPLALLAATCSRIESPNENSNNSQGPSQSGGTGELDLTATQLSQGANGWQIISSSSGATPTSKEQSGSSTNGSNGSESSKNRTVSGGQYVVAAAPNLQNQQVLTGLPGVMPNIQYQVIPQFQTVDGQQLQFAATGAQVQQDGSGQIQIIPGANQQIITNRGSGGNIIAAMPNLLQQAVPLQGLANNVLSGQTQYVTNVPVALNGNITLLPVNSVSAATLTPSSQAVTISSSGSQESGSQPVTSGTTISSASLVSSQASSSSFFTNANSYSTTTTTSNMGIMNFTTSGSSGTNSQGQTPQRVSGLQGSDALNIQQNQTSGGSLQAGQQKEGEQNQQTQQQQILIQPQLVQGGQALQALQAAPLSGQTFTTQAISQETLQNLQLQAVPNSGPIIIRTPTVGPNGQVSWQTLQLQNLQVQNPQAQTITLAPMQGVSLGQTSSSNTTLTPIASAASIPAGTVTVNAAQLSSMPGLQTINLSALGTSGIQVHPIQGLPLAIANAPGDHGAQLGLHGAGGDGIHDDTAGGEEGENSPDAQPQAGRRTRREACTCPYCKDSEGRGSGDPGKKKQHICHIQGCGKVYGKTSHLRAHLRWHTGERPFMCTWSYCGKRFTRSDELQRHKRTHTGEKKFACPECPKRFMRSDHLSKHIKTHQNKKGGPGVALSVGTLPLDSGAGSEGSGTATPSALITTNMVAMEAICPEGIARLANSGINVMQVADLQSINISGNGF

Binder	binding result (Sp1 (rhSp1) [1])	binding result (Sp1 (rhSp1) [2])
B1	binds	
B2		no binding
